Assay results from the nanobody polyreactivity screen of Harvey et al. (2022).

Assay: yeast display, Sf9 membrane polyspecificity reagent, FACS + sequencing; frameworks hold sequencing errors
In short: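 Polyreactivity labels are assigned by the sorting gate from which each nanobody was recovered. The gates were low and high (top ~1%), set on anti-HA fluorescence for expression and streptavidin fluorescence for reagent binding. Before sorting, galactose-induced (36–48 hours) yeast display cells were stained for 1 hour at 4 °C with 10% biotinylated, detergent-solubilized Sf9 membrane reagent.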

Row | Sequence | polyreactivity (PSR sort gate)
1 | QVKLVESGGGLVQAGGSLRLSCAASGRIFGYNAMGWYRQAPGKERELVAAISRSGGTTYYADSVKGRFTISRDNSKNTVNLQMNRLKPEDTEVYYCAAYYRTRVPYDMDYWGQGTQVTVSS | high polyreactivity
2 | QVQRVESGGGLVQAGGSLRLSCAASGSIFRGYAMGWYRQEPEKERELVAAISRRGGSTYYADSVKGRFTISRDNAKNTVYLQMNSLKPEDTAVYYCAIDGTGAGTYDYWGQGTQVTVSS | low polyreactivity
3 | QVQLQESGGGLVQAGGSLLICAASGTISWVDEMGWYRQAPGNERELVAGIAGGGNTNYADSVKGRYTISRDNAKNTVYLEMNSLDTAVYYCAVVGFGRGTHIYWGQGTQVTVSS | high polyreactivity
4 | QVQLVESGGGLVQAGGSLRLSCPASGRTFGIYAMGWYRQAHGKERELVAAITWSGDSTYYADSVKGRFTISRDNAKNTVYLQMNSLKPEDTAVYYCAADYVGVTSVRYDYWGQGTQVTVSS | low polyreactivity
5 | QVQLVESGGGLVQAGGSLRLSCAASGSTFAYNAMGWYRQAPGNERELVAAISFTGDSTYYADSVKGRFTISRDNAKNTVYLQMNSLKPEDTRTSPVLSYDYWGQGTLVTVSS | low polyreactivity
6 | QVQLVESGAGLVQAGGSLRLSCAASGYIFGQNAMGWYRQAPGKERELVASISDGGSTYYADSVKGRFTISRDNAKNTVYLQMNSLKPEDTAVYYCAAGQDWGEKALGAWLFDYWGHGTQVTVSS | low polyreactivity
7 | QVQLVESGGGLVQAGGSLRLSCAAPGSTFVAYAMGWYRQAPGKERELVAAISSVGRTNYADSVKGRFTISRDNAKNTVYLQMNSLKPEDTAVYYCAAVYVDRRKRSYYWGQGTQVTVSS | high polyreactivity
8 | QVQLVESGGGLVQAGGSLRLTCAASGSIFYPYAMGWYRQAPGKERELVAAISWSGGSTYYADSVKGRFTISRDNAKNTVYLQMKSLKPEDTAVYYCNAVGHWFYSSGRYYGDDYWGQGTQVTVSS | high polyreactivity
9 | QVQLVESGGGLVQAGGSLRLSCAASGRTFTRYAMGWYRQAPGKERELVAAISRGGNTNYADSVKGLFTISRDNAKNTVYLQMNSLKPEDTAVYYCARVYGGYSVPSAYGSWGQGTQVTVSS | high polyreactivity
10 | QVQLQESGGGMVQAGGCLRLSCAASVTIFDPDYMGWYHQAPGKERELVASISLGRITYYADSVKGRFTINRDNAKNTVFLQMISLKPEDTAVYYCAAVTGLFYHPFYKYNYWGQGTQVTVSS | high polyreactivity
11 | QVQLVESGGGLVQAVGSLRLSCAASGFTFERNAMGWYRQAPGKARELVATINGSSDSTYYADSVKGRFTISRDKAKNTVYLQMNSLKPEDTAVYYCNADSITEGNSRYSHFDYWGQGTQVTVSS | low polyreactivity
12 | QVQLVESGGGLVQAGGSLRLSCAASGRIFIVYPMGWYRQAPGKERELVATITRGGSTNYADSVKGRFTISRDNAKNTVYLQMNSLKPEDTAVYYCAKGWTNRYPWPGRFRTLYDYWGQGTQVTVSS | low polyreactivity
13 | QVQLVESGGGLVQAGGSLRLSSAASGRTLARNAMGWYRQAPGKERELVAGITSGGSTDYADSVKGRFTISRDNAKNTVYLQMNSLKPEDTAVYYCNRDAGPGGDYWGQGTQGTVSS | low polyreactivity
14 | QVQLVESGGGLVQAGGSLRLSCAASRSTFFHYAMGWNRQAPGKERELVAAISSDGITNYADSVKGRFTISRDNAKNTVYLQMNILIPEDTAVYYCNAETVSTVGLGYWGQGTQVTVSS | low polyreactivity
15 | QVQLVESGGGLVQAGGSLRLSCAASGSIFSNYAMGWYRQAPGKERELVAAISRNGGSTSYADSVKGRFTISRDNAKNTVYLQMNSLKPEDTAVYYCAAVYVTGSYRYGYWGQGTQVTVSS | high polyreactivity
16 | QVQLVESGGGLVQAGGSLRLSCAASGSTFYWYTMGWYRQAPGKERELVARISSSGSTNYADSVKGRFTISRDNAKNTVYLQMNSLKPEDTAVYYCNKDWIYRGYDYWGQGTQVTVSS | high polyreactivity
17 | QVQLVESGGGLVQAGGSLRLSCAASGRIIGYNAMGWYRQAPGKERELVATITYGGGRTYYADSVKGRFTISRDNAKNTVYLQMNSLKPEDTAVYYCAAKHRFPIPGFGYWGQGTQVTVSS | low polyreactivity
18 | QVQLVESGGGLVQAGGSLRLSCAASGFIFGQYAMGWSRQAPGKERELVAAISSVGTTNYADSVKGRFTISRDNAKNTVYLQMNSLKPEDTAVYYCNAPVFYYWDYSYFPYEVDYWGQGTQVTVSS | low polyreactivity
19 | QVQLVESGGGLVQAGGSLRLSCAASGFTFWTYAMGWYRQAPGKERELVAAIDSGGSTYYADSVKGRFTISRDNAKNTVYLQMNSVKPEDTAVYYCNAGPSVTSGYDYDYWGQGTQVTVSS | low polyreactivity
20 | QVQLVESGGGLVQAGGSLRLSCAACGSIFPGYAMGWYRQAPGKERELVATIRWSSGSRTNYADSVKGRFTISRDNAKNTVYLQMNSLKPEDTAVYYCAAGSRRYKYDYWGQGTQVTVSS | high polyreactivity
21 | QVQLEESGGGIVQAGGSLRLSCAASGRTCSNYAMGWNRQAPGKERQLVASIRSSGTSTYYADSVKGRFTISRDIAKNTVYLKMNSLKPEDTAVYYCAKRYFTWSSTYNYWGQGTQVTVSS | high polyreactivity
22 | QVQLVESGGGLVQAGGSLRLSCAASGINFDDNTMGWYRQAPGKERELLAAISSSGGSTYYADSVKGRFTISRDNAKNTVYFQMNSLNPEDTAVYYCAAADYYTYPYIVYRNYPEFDYWGQGTQVTVSS | low polyreactivity

Row | Sequence | polyreactivity (PSR sort gate)
23 | QVQLVESAGGLVQAGGSLRLSCAASGRIFRYNAMGWYRPAPGKERELVAAISSIGGRTYYADTVKGRFTISRDNAKNTVYLQMYSLKPEDTAVYSCNARGYLSRSHMHEYDYWGQGTQVTVSS | high polyreactivity
24 | QVQLVESGGGLVQAGGSLRLSCAASGGTLRYYAMGWYRQAPGKEREFVASISRSGGSTYYADSVKGRFTISRDNAKNTVYLQMNSLKPEDTAVYYCAAYWSPGYTTRRGYWGQGTQVTVSS | high polyreactivity
25 | QVQLVESGGGLVQAGGSLRLSCAASGRIFHRYAMGWYRQAPGKERELVAAISYSTARTYYADSVKGRFTISRDNAKNTVYLQMNSLKPEDTAVYYCAARYQGGYDYWGQGTQVTVSS | high polyreactivity
26 | QVQLVESGGGLVQAGGSLRLSCAASGRTFRYNAMGWYRQAPGKERELVAAISGRGSSTYYSDSVKGRFTISRDNAKNTVYLQMNSLTPEDTAVYYCAALPASVRRPAWHDYWGQGTQVTVSS | high polyreactivity
27 | QVQLVESGGGLVQAGGSLRLSCAASGFTFRDNAMGRYRQAPGKERELVAAITWDGGSTYYADSVKGRFTISRDNEKNTVYLQMNSLKPEDTAVYYCAASRYYPRYFKRYYYWGQGTQVTVSS | high polyreactivity
28 | QVQLVESGGGLVQAGGSLRLSCAASGRTFLRYAMGWYRQAPGKERELVAAISVSGGNTYYADSVKGRFTISRDNAKNTVYLQMNSLKPEDTAVYYCNKARLAAVFSYPYGYWGQVTQVTVSS | low polyreactivity
29 | QVQLVESGGGLVQAGGSLRLSCAASGFTLGFYAMAWYRPAPGKERELVAAINWRGGSTYYADSVKGRFTISRYNAKNTVYLQMNSLKPADTAVYYSNRVYRPSLYDYWGQGTQVSVSS | high polyreactivity
30 | QVQLVESGGGLVQAGGSLRLSCAASGNTFWSYAMGWYRQAPGKERELVAAITQRGGSTYYADSVKGRFTISRDNAKNNVDLQMNSLKPEDTAVYYCAADTYYKGDYWGQGTQVTVSS | high polyreactivity
31 | QVQLVESVGGLVQAGGSLRLSCAASGRTLRYYAMGWYRQAPGKERELVATITRRSGSTYYADSVKGRFTISRDNAKNTVYLQMNSLKPEDTAVYYCNAVWRPGERDYWGQGTQVTVSS | low polyreactivity
32 | QVQLQESGGGLVKAGGSLRLSCAASGSIFYWPWMGWYRQAPGREREFVATITTGSNTYYADSMKGHLTISRDNARNTVYLQMNSLKPEDTAVYYCAVVGDGELEHRYWGQGTQVTVSS | high polyreactivity
33 | QVQLVESGGGLVQAGGSLRLSCAASGSTFRYNAMGWYRPAPGKERELVAAITSGGGTNYADSVKGRFTISRDNAKNTVYLQMNSLKPEDTAVYYCAAPWGLGSELLKRDYWGQGTQVTVSS | low polyreactivity
34 | QVQLVESGGGLVQAGGSLRLSCAASGRIFYAYVMGWYRQAPGKERELVADITSSGSTNYADSVKGRFTISRDNAKNTVYLQMNSLKPEDTAVYYCAKVPYAYQVRRKFGYWGQGTQVTVSS | low polyreactivity
35 | QVQLVESGGGLVQAGGSLRLSCAASGFIFWYYDMGWYRPAPGKEREFVAAITRSSGSTYYADSVKGRFTISRDNAKNTVYLQMNSLKPEDTAVYYCNADSVAYGDEYDYWGQGTQVTVSS | low polyreactivity
36 | QVQLVESGGGLVQAGGSLRLSCAASGSTRIYAMGWYRQAPGKERELVAAISWTGGRTYYADSVKGRFTISRDNAKNTVYLQMNSLKPEDTAVYYCAAKGSGRDYWGQGTQVTVSS | high polyreactivity
37 | KVQLVESGGGLVQAGGSLRLSCAASGNTFYVYTMGWYRQAPGKERDLVAAISSTGDRTYYADSVKGRFTISRDNAKNTVYLQMNSLKPEDTSVYYCADVRYITKEFYWGLGTQVTVSS | high polyreactivity
38 | QVQLVESGGGLVQAGGSLRLSCAASGRTFWYYTMGWYRQAPGKERELVASITYRGGSTYYADSVKGRFTISRDNAKNTVYLQMNSLKPEDTAVYFCNARYKRYSYDYWGHGTQVTVSS | high polyreactivity
39 | QVQLVESGGGLVQAGGSLRLSCAASGRTFYSYAMGWYRQAPGKERELVAAISRAGGTYYADSVKGRFTISRDNAKNTVYLQMNSLKPEDTAVYYCAARQAVYGLRSDFYYWGQGTQVTVSS | high polyreactivity
40 | QVQLVESGGGLVQAGGSLRLSCAASGRIFAHNAMGWYRQPPGKARELVAAITWSGGSTYYADSVKGRFTISRDNAKKTVYLQMNSLNPEDTAVYYCNNDSHGHLYNYWGQGTQVCVSS | low polyreactivity
41 | QVQLVESGGGLVQAGGSLRLSCAGSGSIFKRYAMGWYRQAPGKERELVAAITSRGGSTYYADSVKGRFTISRDTAKNTVYLQLNSLKPEDTAVYYCAATRSSTNGYDYWGQGTQVTVSS | high polyreactivity
42 | QVQLVESGGGLVQAGGSLRLSCAASGSTLLYYAMGWSRQAPGKERELVAAITSGARTYYADSVKGRFTISRDNAKNTVYLQMNSLKPEDTAVYYCNAYRTSWWRAYDYWGQGTQVTVSS | high polyreactivity
43 | QVQLVESGGGLVQAGGSIRLSCAPSGSPNVTYDMGWYRQAPGKESELVASISRGGSTKYADSVKGRFTISRDNAKNTVFLQMNSLKPEDTAVFYGAAKAKNYRLGPYDYWGQGTQVTVSS | low polyreactivity
